Assay results from WO2001072771A2.

B1: H2CA-4-G9-IGF (peptide)
peptide: GIISQSCPESFYDWFAGQVSDPWWCW
B2: H2CA-4-H4-IGFR (peptide)
peptide: QAVQPGFHEEFYDWFVRQVSTGVGGG
B3: 20E2B-3-E12-IGFR (peptide)
peptide: VATSQGFYSGLSELLQGGGNV
B4: 20E2B-2-B8-IGFR (peptide)
peptide: IWATGDFYRLLSQLVMGRVGT
B5: E4D -4-H2-IR (peptide)
peptide: GFREGNFYEWFQAQVT
B6: 20E2B-3-D12-IGFR (peptide)
peptide: QGNVLDFYGWIGRLLAKQGSD
B7: H2CA-4-F6-IGFR (peptide)
peptide: AVRATRFDEAFYDWFVRQISDGQGNK
B8: 20C-3-G3-IGFR (peptide)
peptide: TFYSCLASLLTGTPQPNRGPWERCR
B9: 20E2B-1-A6-IGFR (peptide)
peptide: GVRAMSFYDALVSVLGLGPSG
B10: B6Hα-1-A3-IR (peptide)
peptide: SRAKVEAEMPDSGDPFYHKLSELLASG
B11: 20E2B-3-C4-IGFR (peptide)
peptide: ASSASGFYELLQRLAGLGLEV
B12: 20E2B-2-B3-IGFR (peptide)
peptide: ICTGQGFYQVLCGLLRGTSAR
B13: 20E2B-4-H9-IGFR (peptide)
peptide: RCQGTGFYTCIQELIGFGDPD
B14: 20E2B-3-D6-IGFR (peptide)
peptide: DSVGDNFYQLLESLVGGHGVG
B15: H2CA-1-A7-IGFR (peptide)
peptide: RCGRELYHSTFYDWFDRQVAGRTCPS
B16: 40F-4-D1-IGFR (peptide)
peptide: LSCLAYSRHGIWRPSTDLGLGRSVGEGSVSTRWRGYDWFE
B17: B6Hα-3-E8-IR (peptide)
peptide: RGKTAAVIVGRPADPFYHKLSELLQGG
B18: H2CA-1-A3-IGFR (peptide)
peptide: APDPSDFQEIFYDWFVRQVSRMPGGG
B19: 20E2A-4-F11-IGFR (peptide)
peptide: QGGSASFYDAIDRLLRMRIGG
B20: H2CA-3-E8-IGFR (peptide)
peptide: LGYQEPFQQNFYDWFVRQVSGAENAG
B21: 20E2B-4-F10-IGFR (peptide)
peptide: AQPCGGFYGLLEQLVGRSVCD
B22: R20β-4-E8-IR (peptide)
peptide: VRGFQGGTVWPGYEWLRNAA
B23: 20E2A-3-C7-IGFR (peptide)
peptide: VGTVAGFYDAIAQLVARASRV
B24: F2 phage (peptide)
peptide: SMFVAGSDRWPGYGVLADWL
B25: B6Hα-1-B5-IR (peptide)
peptide: CCTTEMWMDARDDPFYHKLSELVTGG
B26: 20E2B-2-B7-IGFR (peptide)
peptide: LSSDGQFYRANLLLQGSAGR
B27: R20α-3-20E2-IR (peptide)
peptide: FYDAIDQLVRGSARAGGTRD
B28: H2CA-2-B9-IGFR (peptide)
peptide: RAGSSDFHEDFYEWFVRQVSLSLKGK
B29: NNRPγ-4-A9-IR (peptide)
peptide: EGSGFYGYFFSLLGLQG
B30: NNRPγ-4-A7-IR (peptide)
peptide: RFDPFYSYFVNLLGASA
B31: A6S-3-E2-IR (peptide)
peptide: TSEVQRRSQDNFYDWFVAQVA
B32: 20C-3-E4-IGFR (peptide)
peptide: FFYRCLSRLLGGQLGSRLGLSCIGD
B33: H2CA-2-B4-IGFR (peptide)
peptide: CCLLCRFQQNFYDWFVCQGISRLRPL
B34: 20E2B-4-H8-IGFR (peptide)
peptide: PAGPCGFYCGLGLLLHGDQSP
B35: H2CA-3-C8-IGFR (peptide)
peptide: SSCDGAGHESFYEWFVRQVSGCRSV
B36: H2CA-3-E11-IGFR (peptide)
peptide: HLADGQFHEKFYDWFERQISSRCNDC
B37: 20E2B-4-G11-IGFR (peptide)
peptide: RQGTGSFYLMLEQLLVGARGP
B38: H2CA-3-D8-IGFR (peptide)
peptide: NYRRQVFNGNFYDWFDRQVFSLVTPG
B39: B6Hα-1-A2-IR (peptide)
peptide: RGCNDDGGKGWSDDPFYHKLSELICGG
B40: R20 -4-20A12-IR (peptide)
peptide: RLFYCGIQALGANLGYSGCV
B41: H2CA-3-D6-IGFR (peptide)
peptide: QSPVGSSHEDFYDWFFRQVAQSGAHQ
B42: H2CA-4-F10-IGFR (peptide)
peptide: VNQSGSIHENFYDWFERQVSHQRGVR
B43: NNRPγ-4-B11-IR (peptide)
peptide: LKDGFYDYFWQRLHLGS
B44: B6Hα-2-C10-IR (peptide)
peptide: SGAKVIWTGDSGDPFYHKLSELLQGS

Tests used:
[1] = target: soluble IGF-1 receptor (human) (UniProt P08069); test: phage ELISA
[2] = target: soluble human insulin receptor (IR-Fc) (human) (UniProt P06213); test: phage ELISA
[3] = target: soluble IGF-1 receptor (human) (UniProt P08069); test: phage ELISA; non-fat milk blank 0.10
[4] = target: soluble human insulin receptor (IR-Fc) (human) (UniProt P06213); test: phage ELISA; non-fat milk blank 0.10
[5] = target: soluble IGF-1 receptor (human) (UniProt P08069); test: phage ELISA; non-fat milk blank 0.09
[6] = target: soluble human insulin receptor (IR-Fc) (human) (UniProt P06213); test: phage ELISA; non-fat milk blank 0.09
[7] = target: soluble IGF-1 receptor (human) (UniProt P08069); test: phage ELISA; non-fat milk blank 0.11
[8] = target: soluble human insulin receptor (IR-Fc) (human) (UniProt P06213); test: phage ELISA; non-fat milk blank 0.11

Binder	ratio over background [1]	ratio over background [2]	further results
B1	9.5	0.6	–
B2	4.1	1	–
B3	6	0.8	–
B4	5.7	0.8	–
B5	33.9	8.2	–
B6	6.2	0.9	–
B7	7.3	1.1	–
B8	32.3	1.2	–
B9	18.1	1.1	–
B10	2.6	0.8	–
B11	20.4	3.3	–
B12	5.3	0.7	–
B13	5.2	0.9	–
B14	17.8	2.6	–
B15	2.2	0.6	–
B16	4.6	0.3	–
B17	5.3	1.1	–
B18	3.8	0.8	–
B19	18.8	1.3	–
B20	6.3	2.2	–
B21	17.3	2.2	–
B22	34.9	3.6	absorbance (405 nm) [3]: 2; absorbance (405 nm) [4]: 1.34

Binder	ratio over background [1]	ratio over background [2]	further results
B23	5.4	1.1	–
B24	–	–	absorbance (405 nm) [5]: 2.08; absorbance (405 nm) [6]: 1.43
B25	20.5	1	–
B26	6.1	0.9	–
B27	39.9	3.1	absorbance (405 nm) [7]: 2.15; absorbance (405 nm) [8]: 1.01
B28	7	1.7	–
B29	10	1.4	–
B30	6.3	1.3	–
B31	24.7	9.8	–
B32	7.7	1.3	–
B33	4.1	1.1	–
B34	5.3	0.9	–
B35	5.6	1.2	–
B36	2.2	1	–
B37	4.5	0.6	–
B38	7.2	1.8	–
B39	14.6	1	–
B40	39.9	2.4	–
B41	9	2.2	–
B42	5.7	1	–
B43	18.7	1.2	–
B44	5.8	1.1	–
